Substitutions are numbered along the chain they refer to.
T1: human TG2 (Homo sapiens, UniProt P21980)
T1 sequence (P21980 1-687): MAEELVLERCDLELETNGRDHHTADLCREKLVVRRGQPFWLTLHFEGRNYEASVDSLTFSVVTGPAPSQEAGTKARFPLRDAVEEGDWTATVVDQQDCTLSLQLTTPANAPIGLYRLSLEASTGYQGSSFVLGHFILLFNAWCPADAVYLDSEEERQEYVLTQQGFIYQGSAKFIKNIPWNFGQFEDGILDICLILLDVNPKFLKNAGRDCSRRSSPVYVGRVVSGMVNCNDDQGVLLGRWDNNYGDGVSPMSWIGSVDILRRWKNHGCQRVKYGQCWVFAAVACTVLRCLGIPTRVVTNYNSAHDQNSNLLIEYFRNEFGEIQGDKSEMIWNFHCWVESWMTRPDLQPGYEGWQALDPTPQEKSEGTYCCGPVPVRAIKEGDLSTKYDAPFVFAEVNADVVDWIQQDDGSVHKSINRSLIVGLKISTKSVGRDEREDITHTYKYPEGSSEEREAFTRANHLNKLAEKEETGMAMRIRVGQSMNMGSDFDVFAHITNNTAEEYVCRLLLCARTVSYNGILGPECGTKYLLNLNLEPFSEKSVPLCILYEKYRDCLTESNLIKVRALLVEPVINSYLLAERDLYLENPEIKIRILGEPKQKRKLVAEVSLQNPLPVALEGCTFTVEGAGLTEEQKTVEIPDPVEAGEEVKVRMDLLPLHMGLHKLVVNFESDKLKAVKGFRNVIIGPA

B1: hAB005: humanised AB1 antibody; heavy chain version RHA with light chain version RKJ (antibody, V domains shown)
VH: EVQLLESGGGLVQPGGSLRLSCAASGFTFSSSAMSWVRQAPGKGLEWVSTISVGGGKTYYPDSVKGRFTISRDNSKNTLYLQMNSLRAEDTAVYYCAKLISLYWGQGTLVTVSS
VL: DIQMTQSPSSLSASVGDRVTITCKASQDINSYLTWFQQKPGKAPKSLIYRTNRLFDGVPSRFSGSGSGTDFFLTISSLQPEDFATYYCLQYDDFPYTFGQGTKVEIK
B2: cDC001: chimeric DC1 antibody: murine variable regions, human IgG1 and human kappa (antibody, V domains shown)
VH: EVQLVESGGGLVKPGGSLKLSCAASGFTLSTHAMSWVRQTPEKRLEWVATISSGGRSTYYPDSVKGRFTISRDNVKNTLYLQLSSLRSEDTAVYFCARLISTYWGQGTTLTVSS
VL: DITMTQSPSSIYASLGERVTITCKASQDINSYLTWFQQKPGKSPKILIYLVNRLVDGVPSRFSGSGSGQDYALTISSLEYEDMGIYYCLQYDDFPYTFGGGTKLEIK
B3: hBB001BB: humanised BB7 antibody (heavy chain hBB001HB, light chain hBB001KB by name) (antibody, V domains shown)
VH: B1 VH with F27I, T28I, S49A, V53S, G56R, K57S, I70V, N74S, L102P
VL: B1 VL with Q3K, S46T, R50L, F55M, T69Q, D70E, F72L, D92V
B4: hAB004: humanised AB1 antibody; heavy chain version RHA with light chain version RKE (antibody, V domains shown)
VH: B1 VH
VL: B1 VL with D1E, Q3V, M4L, F36Y, S46L, L73F, A84G, Q100G, V104L

system: WI-38 cells; assay: Scratch wound assay in WI-38 cells; format: cell-based, human; settings: serum free media; Cytochalasin D 0.1 μM, R281 100 μM, Z DON 10 μM and 100 μM, Cub7402 5 μg/ml
Protocol: WI-38 cells (normal human lung fibroblasts ATCC cat#CCL-75) were plated in a 96 well Image Lock plate (Essen cat#4379) at 2×10^4/well in αMEM media (Life Technologies cat#32561) with 10% FBS and grown O/N to >97% confluence. Cells were washed 2× with αMEM media without serum and a scratch wound was generated using an Essen Wound Maker and the manufacturers protocol. The media was removed and replaced with 95 μl/well serum free media. Controls and test antibodies were added to the wells. The plate was placed in an Essen Incucyte and the closure of the wound was analysed using the scratch wound protocol.
Cytochalasin D was used as an assay control at 0.1 μM. R281, a small molecule non-specific transglutaminase inhibitor, was tested at 100 μM. Z DON, a peptide non reversible transglutaminase inhibitor was tested at 10 μM and 100 μM. The commercially available TG2 antibody Cub7402 (ABcam cat#ab2386) was tested at 5 μg/ml. Antibodies of the invention were tested on at least three occasions at various concentrations as indicated. In all experiments controls were Cytochalasin D at 0.1 uM and ZDON at two concentrations to show a dose dependant effect.

Row | Molecule | effect on wound closure
1 | B1 | inhibited wound closure
2 | B2 | inhibited wound closure

system: Cynomolgus TG2; assay: Biacore (SPR) affinity, cynomolgus TG2; format: binding, cynomolgus monkey; settings: +Ca^2+ (1 mM CaCl2 running buffer; includes rows without a Ca mark)
Protocol: (§1) Recombinant human TG2 was obtained from Zedira GmbH (cat. no.: T002). Recombinant cynomolgus monkey TG2 was obtained from Trenzyme. Surface plasmon resonance (SPR) was measured on a Biacore T200 instrument (GE Healthcare). CM5 chips (GE Healthcare cat. no.: BR-1006-68) were coated with monoclonal mouse anti-human IgG1 (Fc) (MAH) antibody (GE Healthcare cat. no.: BR-1008-39) by amine-coupling as described in the manufacturers instructions. HBS-EP+ buffer (0.01 M HEPES, 0.15 M NaCl, 3 mM EDTA, 0.05% v/v Surfactant P20) and HBS-P+ buffer (0.01 M HEPES, 0.15 M NaCl, 0.05% Surfactant P20) were purchased from GE Healthcare as 10× stocks (cat. nos.: BR-1006-69 and BR-1006-71). Calcium Chloride solution was obtained from Sigma Aldrich (cat. no.:21115).
(§2) The method employed to determine the affinity of the anti-TG2 antibodies involved the capture of the chimeric or humanised antibodies on a MAH coated CM5 chip, followed by the injection of a series of TG2 samples in running buffer. The running buffer was 1×HBS-P+ containing 1 mM CaCl2, or 1×HBS-EP+ for calcium-free experiments. Antibody capture was carried out for a contact time of 120 seconds at a flow rate of 10 μl/min resulting in the capture of approximately 40-80 RU. TG2 was injected over the immobilised antibody at concentrations ranging from 25 nM to 400 nM with a contact time up to 600 seconds at a flow rate of 30 μl/min. Dissociation of TG2 was typically measured for up to 5400 seconds (1.5 hours). Regeneration of the chip was then performed using 3 M MgCl2, for a contact time of 60 seconds at a flow rate of […], followed by a 300 s stabilisation period before the next sample. For each of human and cynomolgus monkey TG2, at least 5 injections at a variety of concentrations were performed in at least two separate experiments.
(§3) Kinetic data were exported from the Biacore T200 Evaluation Software and analysed using GraphPad Prism, where the association phases and dissociation phases were analysed separately using a one phase association model and one-phase exponential decay model respectively. Association rates (kon) were calculated for each curve individually, and dissociation rates (koff) values from the long dissociation phase data collected. Where koff values were calculated to be <1×10^−5 s^−1, values were set at 1×10^−5 for analysis, as rates slower than this could not be estimated accurately. Values for kon and koff are presented in the tables below as the mean of the individual calculated values for each antibody for each TG2 species from multiple concentrations +/−1 standard deviation. KD values are calculated as mean koff/mean kon.

Row | Molecule | koff | kon [M⁻¹ s⁻¹]
3 | B3 | 3.7e-05 s⁻¹ | 270000
4 | B1 | 3.4e-05 s⁻¹ | 140000
5 | B4 | 1.8e-05 s⁻¹ | 160000
6 | B2 | <10^−5 s^−1 | 420000

target: T1, human TG2; assay: Fluorescence-based transglutaminase assay (dansylated lysine into N,N-dimethylated casein), human TG2; format: biochemical; set-up: purchased Zedira GmbH T002; settings: 1 nM human TG2
Protocol: Transglutaminase activities of purified human (Zedira) or cynomogolus monkey TG2 enzymes (Trenzyme) were measured by incorporation of dansylated lysine K×D (Zedira) into N,N-dimethylated casein (DMC, Sigma). Human or cynomogolus monkey TG2 were diluted in transamidation buffer (25 mM HEPES pH 7.4 containing 250 mM NaCl, 2 mM MgCl2, 5 mM CaCl2, 0.2 mM DTT and 0.05% v/v Pluronic F-127) to 1 nM and 10 nM respectively and mixed with various concentrations of protein-A purified murine, chimeric or humanised TG2 antibodies for 180 min at room temperature in 384-well black microtiter plates (Corning). Reactions were initiated by addition of DMC and K×D to a final concentration of 10 uM and 20 uM respectively and a final reaction volume of 30 ul, and allowed to proceed at RT for 180 min and the increase in fluorescence (RFU) (excitation at 280 nm, emission 550 nm) monitored using a Tecan Safire^2 plate reader. Data were normalised to percentage activity where % activity=(RFU test antibody−RFU low controls)/RFU high controls−RFU low controls)×100, where low controls contained all components except enzyme and high controls contained all components except antibody.
Antibody dose response curves were plotted using GraphPad prism software and fitted using a 4-parameter logistical model to return IC50 and other statistical parameters. The results are illustrated in FIGS. 29 to 33.

Row | Molecule | inhibition of human TG2 transamidation (in words)
7 | B3 | potent inhibition of TG2 activity in the low nanomolar range
8 | B1 | potent inhibition of TG2 activity in the low nanomolar range
9 | B4 | potent inhibition of TG2 activity in the low nanomolar range
10 | B2 | potent inhibition of TG2 activity in the low nanomolar range

target: T1, human TG2; assay: ELISA assay for TG2 binding, human TG2; set-up: purchased Zedira GmbH T002; settings: not given
Protocol: Antibody binding to human and cynomolgus monkey TG2 was determined in an ELISA assay. Clear polystyrene “Maxisorp” 96-well plates (Nunc) were coated with 50 ng purified human or cynomogulus monkey TG2 in 50 μl 0.05 M carbonate-bicarbonate buffer pH 9.6 at 4° C. overnight. Control wells were coated with 50 μl 100 μg/ml bovine serum albumin (BSA). Plates were washed 3× with 300 μl phosphate-buffered saline pH7.4 (PBS) containing 0.1% Tween 20 (PBST) and blocked with 300 μl 3% w/v Marvel skimmed milk in PBS for 1 hour at room temperature. After 3× wash with PBST, 50 μl protein-A purified chimeric or humanised anti-TG2 antibodies or human IgG1 kappa isotope control antibody or CUB7402 (Abcam) were serially diluted 4-fold from a top concentration of 50 nM in PBS, and added to the plate in duplicate. […] After 3× washes with PBST, the plates were developed with 50 μl TMB substrate (Sigma) for 5 min at room temperature before stopping the reaction with 25 μl 0.5M H2SO4 and reading absorbance at 450 nm in a microtiter plate reader (BioTek EL808). Dose response curves were analysed and EC50 values and other statistical parameters determined using a 4-parameter logistical fit of the data (GraphPad Prism).

Row | ELISA binding to human TG2 (in words) | Molecule
11 | comparable EC50 values | B3
12 | comparable EC50 values | B4

target: T1, human TG2; assay: Biacore (SPR) affinity, human TG2; format: binding; set-up: purchased Zedira GmbH T002; settings: +Ca^2+ (1 mM CaCl2 running buffer; includes rows without a Ca mark)
Protocol: as §1, §2, §3

Row | koff | kon [M⁻¹ s⁻¹] | Molecule
13 | <10^−5 s^−1 | 240000 | B3
14 | <10^−5 s^−1 | 190000 | B1
15 | 2.4e-05 s⁻¹ | 200000 | B4
16 | <10^−5 s^−1 | 320000 | B2

Source: US10005846B2, “Anti-transglutaminase 2 antibodies” (MEDICAL RESEARCH COUNCIL TECHNOLOGY, priority 2012, dated 2018)
